Test: Screen: transfer of malonyl-moieties from Mal-CoA to N-(2-mercaptoethyl)-hexanamide (enzyme-coupled assay)
Type: biochemical, murine
Details: fixed substrate and acceptor concentrations; FIG. 4
Protocol: Specific transfers from Mal-CoA to N-(2-mercaptoethyl)-hexanamide were analyzed at fixed substrate and acceptor concentrations. […] Shown error bares reflect standard deviations from triplicates.
Further engineered mutants were expressed, purified and analyzed, building up on the previous studies. A screen for fifty different exemplary mutants was performed analyzing the transfer of malonyl-moieties from CoA to N-(2-mercaptoethyl)-hexanamide. Four solutions were prepared as 4× concentrated stocks in the assay buffer. Solution 1 contained the acyltransferases at the concentration range of 0.01 μM-10 μM and were arranged in four groups depending on their individual turnover rates to achieve good signal to noise ratios. Solution 2 contained the enzyme-coupled system including 8 mM α-ketoglutaric acid, 1.6 mM NAD+, 1.6 mM TPP and 60 mU/100 μL αKGDH. Solution 3 contained a fixed concentration of malonyl (Mal)-CoA at 200 μM and solution 4 contained the acceptor N-(2-mercaptoethyl)-hexanamide at 200 μM. 5 μL of Solutions 1-3 were pipetted into a 384-well Small Volume HiBase Microplates (Greiner Bio-one) and mixed manually. The reactions were started by adding 5 μL of solution 4 with an automatic multichannel pipette (ClipTip). The reaction progress was recorded using the following settings: 348-20 nm; emission: 476-20 nm; gain: 1700; focal height: 12.1 mm; flashes: 10; orbital averaging: off. […]

B1: Mutant A48: engineered murine acyltransferase, mutations T161A F184E R286D K186D D160R (protein)
chain: NKRPLWFICSGMGTQWRGMGLSLMRLDSFRESILRSDEAVKPLGVKVSDLLLSTDERTFDDIVHAFVSLTAIQIALIDLLTSVGLKPDGIIGHSLGEVACGYADGCLSQREAVLAAYWRGQCIKDAHLPPGSMAAVGLSWEECKQRCPAGVVPACHNSERAVTISGPQAAVNEFVEQLKQEGVEADEVRTGGLAFHSYFMEGIAPTLLQALKKVIREPRPRSARWLSTSIPEAQWQSSLARTSSAEYNVNNLVSPVLFQEALWHIPEHAVVLEIAPHALLQAVLKDGVKSSCTIIPLMKRDHKDNLEFFLTNLGKVHLT
turnover rate, transfer from Mal-CoA to N-(2-mercaptoethyl)-hexanamide: did not give a detectable signal

— US20260218138A1, “ENGINEERED ACYLTRANSFERASES HAVING ALTERED SUBSTRATE SPECIFICITY” (KEZBIOSOLUTIONS GMBH, priority 2022, published 2026)
